Consider one molecule from PMC8763658.

The target in this assay is MUC1 mucin (tumor‐associated MUC1) on human cancer cells (human (endogenous in T47D, A549, MCF-7)) (UniProt P15941).
Sequence of UniProt P15941 (P15941 24-1255, stated change not applied): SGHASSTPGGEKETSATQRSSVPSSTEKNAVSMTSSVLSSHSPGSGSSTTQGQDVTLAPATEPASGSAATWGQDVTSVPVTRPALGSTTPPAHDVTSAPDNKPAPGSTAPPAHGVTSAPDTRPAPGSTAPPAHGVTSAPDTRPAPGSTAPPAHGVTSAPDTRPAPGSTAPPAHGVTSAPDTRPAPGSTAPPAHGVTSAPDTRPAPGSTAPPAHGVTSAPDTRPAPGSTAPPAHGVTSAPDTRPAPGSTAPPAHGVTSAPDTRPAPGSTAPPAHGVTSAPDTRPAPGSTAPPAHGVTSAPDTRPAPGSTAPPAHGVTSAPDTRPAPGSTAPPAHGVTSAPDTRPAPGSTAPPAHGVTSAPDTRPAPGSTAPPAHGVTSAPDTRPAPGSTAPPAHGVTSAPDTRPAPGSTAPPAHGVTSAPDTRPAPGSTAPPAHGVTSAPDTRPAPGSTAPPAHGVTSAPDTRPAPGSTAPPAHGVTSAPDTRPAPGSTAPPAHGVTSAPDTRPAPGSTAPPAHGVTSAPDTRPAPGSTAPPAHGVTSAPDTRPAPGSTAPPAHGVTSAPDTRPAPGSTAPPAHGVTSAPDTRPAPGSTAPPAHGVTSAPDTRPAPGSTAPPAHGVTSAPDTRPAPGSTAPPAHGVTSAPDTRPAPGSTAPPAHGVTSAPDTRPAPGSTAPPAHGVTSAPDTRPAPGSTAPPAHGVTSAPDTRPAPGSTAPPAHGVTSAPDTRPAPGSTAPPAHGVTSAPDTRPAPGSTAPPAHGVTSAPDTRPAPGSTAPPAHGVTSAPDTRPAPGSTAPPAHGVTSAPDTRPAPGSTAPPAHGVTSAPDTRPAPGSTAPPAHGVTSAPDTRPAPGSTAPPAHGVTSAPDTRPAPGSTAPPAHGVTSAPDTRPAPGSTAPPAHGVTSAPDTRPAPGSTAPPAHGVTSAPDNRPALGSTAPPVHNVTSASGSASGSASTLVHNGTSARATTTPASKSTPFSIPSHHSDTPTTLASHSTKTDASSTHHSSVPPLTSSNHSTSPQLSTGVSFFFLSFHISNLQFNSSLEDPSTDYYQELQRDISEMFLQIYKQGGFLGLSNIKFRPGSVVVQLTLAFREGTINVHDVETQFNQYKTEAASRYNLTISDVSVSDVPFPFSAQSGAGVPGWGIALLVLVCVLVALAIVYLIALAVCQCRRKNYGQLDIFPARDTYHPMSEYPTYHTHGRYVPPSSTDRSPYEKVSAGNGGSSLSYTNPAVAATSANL

B1: recombinant anti‐MUC1 nanobody (VHH)
VHH: EVQLVESGGGLVQPGGSLRLSCAASGFTFDDYGMSWVRQAPGKWLEWVSDISWNGGSTYYADSVKGRFTISRDNAENTLYLQMNSLKPDDTAVYYCAKMGEGGWGANDYWGQGTQVTVSS
With B1, the MTT viability assay, A549 cells, 48 h, IC50 of growth inhibition is 14.3 nM; the MTT viability assay, MCF7 cells, 48 h, IC50 of growth inhibition was 7 nM; the MTT viability assay, MDA‐MB‐231 cells, 48 h, IC50 of growth inhibition came to 10 nM; the MTT viability assay, SKBR3 cells, IC50 of growth inhibition came to 4.16 nM. The molecule also returned an MTT viability assay, SW742 cells, 48 h, IC50 of growth inhibition of 7.2 nM and an MTT viability assay, T47D cells, 48 h, IC50 of growth inhibition of 1.2 nM.
